Measured values: patent publication US20180291335A1, “MODIFIED POLYNUCLEOTIDES FOR ALTERING CELL PHENOTYPE” (ModernaTX, Inc., priority 2012, published 2018)
Several values for one entry are separate records, joined by “and”; a condition that tells them apart may be missing. Equal values may be shown once.

Tests used:
rabbit reticulysates = test: G-CSF modified mRNA in rabbit reticulysates, G-CSF ELISA; format: biochemical; conditions: 250 ng of modified mRNA, listed as 5-methylcytosine/N1-methylpseudouridine
Procedure: To assess the activity of all our different chemical modifications in the context of a second open reading frame, we replicated experiments previously conducted using luciferase mRNA, with human G-CSF mRNA. […] The mutant T7 polymerase was obtained commercially (Durascribe® T7 Transcription kit (Cat. No. DS010925) (Epicentre®, Madison, Wis.).
The modified RNA in Tables 27 and 28 were transfected in vitro in HeLa cells or added to rabbit reticulysates (250 ng of modified mRNA) as indicated. […] In Table 27, “NT” means not tested.

interferon-alpha (IFN-α) = test: In vitro screening in PBMC: interferon-alpha induction by ELISA; format: cell-based, human
Outline: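 Read-out: ELISA of frozen-stored culture supernatants for secreted G-CSF and induced cytokines.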

HeLa cells = test: G-CSF modified mRNA transfected in HeLa cells, G-CSF ELISA; format: cell-based, human; conditions: HeLa cells, ELISA
Outline: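 G-CSF ELISA readout after 250 ng of chemically modified human G-CSF mRNA (transcribed by mutant T7 polymerase) was added to rabbit reticulocyte lysate or transfected in vitro into HeLa cells.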

[1] = test system: interferon-alpha (IFN-alpha); test: 2′Fluoro chemistries in PBMC: IFN-alpha production by ELISA; format: cell-based, human; conditions: G-CSF modified mRNA
[2] = test system: peripheral blood mononuclear cells (PBMC); test: In vitro screening in PBMC: G-CSF protein expression by ELISA; format: cell-based, human
Text: (§1) The supernatant was harvested and stored frozen until analyzed by ELISA to determine the G-CSF protein expression, and the induction of the cytokines interferon-alpha (IFN-α) and tumor necrosis factor alpha (TNF-α).

[3] = test system: tumor necrosis factor alpha (TNF-α); test: In vitro screening in PBMC: tumor necrosis factor alpha induction by ELISA; format: cell-based, human
Text: as §1

[4] = test system: tumor necrosis factor-alpha (TNF-alpha); test: 2′Fluoro chemistries in PBMC: TNF-alpha production by ELISA; format: cell-based, human; conditions: G-CSF modified mRNA
[5] = PBMC Donor 1, 500 ng G-CSF mRNA
[6] = PBMC Donor 2, 500 ng G-CSF mRNA
[7] = PBMC Donor 2, 500 ng G-CSF mRNA, listed as 5-methylcytosine and N1-methylpseudouridine (2nd set)
[8] = PBMC Donor 2, 500 ng G-CSF mRNA, listed as 5-methylcytosine and N1-methylpseudouridine (4th set)
[9] = PBMC Donor 3, 500 ng G-CSF mRNA
[10] = PBMC Donor 3, 500 ng G-CSF mRNA, listed as 5-methylcytosine and N1-methylpseudouridine (2nd set)
[11] = PBMC Donor 3, 500 ng G-CSF mRNA, listed as 5-methylcytosine and N1-methylpseudouridine (4th set)
[12] = listed as 5-methylcytidien/N1-methylpseudouridine
[13] = listed as 5-methylcytidine/N1-methylpseudouridine

B1: 5-methylcytosine and N1-methyl-pseudouridine (1^st set): G-CSF mRNA (SEQ ID NO: 408) fully modified with 5-methylcytosine and N1-methylpseudouridine; repeated sets/tests (nucleic acid)
chain: GGGAAAUAAGAGAGAAAAGAAGAGUAAGAAGAAAUAUAAGAGCCACCAUGGCCGGUCCCGCGACCCAAAGCCCCAUGAAACUUAUGGCCCUGCAGUUGCUGCUUUGGCACUCGGCCCUCUGGACAGUCCAAGAAGCGACUCCUCUCGGACCUGCCUCAUCGUUGCCGCAGUCAUUCCUUUUGAAGUGUCUGGAGCAGGUGCGAAAGAUUCAGGGCGAUGGAGCCGCACUCCAAGAGAAGCUCUGCGCGACAUACAAACUUUGCCAUCCCGAGGAGCUCGUACUGCUCGGGCACAGCUUGGGGAUUCCCUGGGCUCCUCUCUCGUCCUGUCCGUCGCAGGCUUUGCAGUUGGCAGGGUGCCUUUCCCAGCUCCACUCCGGUUUGUUCUUGUAUCAGGGACUGCUGCAAGCCCUUGAGGGAAUCUCGCCAGAAUUGGGCCCGACGCUGGACACGUUGCAGCUCGACGUGGCGGAUUUCGCAACAACCAUCUGGCAGCAGAUGGAGGAACUGGGGAUGGCACCCGCGCUGCAGCCCACGCAGGGGGCAAUGCCGGCCUUUGCGUCCGCGUUUCAGCGCAGGGCGGGUGGAGUCCUCGUAGCGAGCCACCUUCAAUCAUUUUUGGAAGUCUCGUACCGGGUGCUGAGACAUCUUGCGCAGCCGUGAAGCGCUGCCUUCUGCGGGGCUUGCCUUCUGGCCAUGCCCUUCUUCUCUCCCUUGCACCUGUACCUCUUGGUCUUUGAAUAAAGCCUGAGUAGGAAG
modifications: 5-methylcytosine/N1-methylpseudouridine modified; Description of Artificial Sequence: Synthetic Transcript Sequence
notes: repeated sets/tests
B1 was tested, and the “G-CSF protein (pg/ml) Rabbit reticulysates cells” value (rabbit reticulysates; Test A) was 110,500 pg/ml, the “G-CSF protein (pg/ml) Rabbit reticulysates cells” value (rabbit reticulysates; Test B) was 76,750 pg/ml and the “G-CSF protein (pg/ml) Rabbit reticulysates cells” value (rabbit reticulysates; Test D) was 97,125 pg/ml. For the same molecule, the “IFN-α Expression” value (interferon-alpha (IFN-α); [5]) was 0 pg/mL, the “IFN-α Expression” value (interferon-alpha (IFN-α); [6]) was 60 pg/mL and the “IFN-α Expression” value (interferon-alpha (IFN-α); [7]) was 66 pg/mL. For the same molecule, the “IFN-α Expression” value (interferon-alpha (IFN-α); [8]) was 0 pg/mL, the “IFN-α Expression” value (interferon-alpha (IFN-α); [9]) was 136 pg/mL and the “IFN-α Expression” value (interferon-alpha (IFN-α); [10]) was 140 pg/mL. The “IFN-α Expression” value (interferon-alpha (IFN-α); [11]) was 0 pg/mL, the “G-CSF protein (pg/ml) HeLa cells” value (HeLa cells; G-CSF mRNA, listed as 5-methylcytosine/N1-methylpseudouridine, Control) was 1,106,591 pg/ml and the “G-CSF protein (pg/ml) HeLa cells” value (HeLa cells; G-CSF mRNA, listed as 5-methylcytosine/N1-methylpseudouridine, Test A) was 1,534,318 pg/ml. For the same molecule, the “G-CSF protein (pg/ml) HeLa cells” value (HeLa cells; G-CSF mRNA, listed as 5-methylcytosine/N1-methylpseudouridine, Test B) was 1,568,636 pg/ml, the “G-CSF protein (pg/ml) HeLa cells” value (HeLa cells; G-CSF mRNA, listed as 5-methylcytosine/N1-methylpseudouridine, Test D) was 1,168,864 pg/ml and the “G-CSF protein (pg/ml) HeLa cells” value (HeLa cells; combination chemistries, listed as 5-methylcytidine/N1-methylpseudouridine) was 747,045 pg/ml and 689,091 pg/ml. The “G-CSF protein (pg/ml) HeLa cells” value (HeLa cells; combination chemistries, listed as 5-methylcytosine/N1-methylpseudouridine) was 1,017,727 pg/ml, the “G-CSF protein (pg/ml) HeLa cells” value (HeLa cells; combination chemistries, listed as 5-methylcytosine/N1-methylpseudouridine, Control 1) was 848,409 pg/ml and the “G-CSF protein (pg/ml) HeLa cells” value (HeLa cells; combination chemistries, listed as 5-methylcytosine/N1-methylpseudouridine, Control 2) was 581,818 pg/ml. For the same molecule, the “IFN-alpha: 3 Donor Average” value [1, 12] was 35 pg/mL, the “IFN-alpha: 3 Donor Average” value [1, 13] was 31 pg/mL and the “G-CSF Protein Expression” value [2, 5] was 10,232 pg/ml. The “G-CSF Protein Expression” value ([2]; PBMC Donor 1, 500 ng G-CSF mRNA, listed as 5-methylcytosine and N1-methyl-pseudouridine (2nd set)) was 9,564 pg/ml, the “G-CSF Protein Expression” value ([2]; PBMC Donor 1, 500 ng G-CSF mRNA, listed as 5-methylcytosine and N1-methyl-pseudouridine (4th set)) was 9,505 pg/ml and the “G-CSF Protein Expression” value [2, 6] was 7,245 pg/ml. For the same molecule, the “G-CSF Protein Expression” value ([2]; PBMC Donor 2, 500 ng G-CSF mRNA, listed as 5-methylcytosine and N1-methyl-pseudouridine (2nd set)) was 8,509 pg/ml, the “G-CSF Protein Expression” value ([2]; PBMC Donor 2, 500 ng G-CSF mRNA, listed as 5-methylcytosine and N1-methyl-pseudouridine (4th set)) was 6,927 pg/ml and the “G-CSF Protein Expression” value [2, 9] was 6,214 pg/ml. For the same molecule, the “G-CSF Protein Expression” value ([2]; PBMC Donor 3, 500 ng G-CSF mRNA, listed as 5-methylcytosine and N1-methyl-pseudouridine (2nd set)) was 7,141 pg/ml, the “G-CSF Protein Expression” value ([2]; PBMC Donor 3, 500 ng G-CSF mRNA, listed as 5-methylcytosine and N1-methyl-pseudouridine (4th set)) was 5,405 pg/ml and the “TNF-α Expression” value [3, 5] was 54 pg/mL. The “TNF-α Expression” value ([3]; PBMC Donor 1, 500 ng G-CSF mRNA, listed as 5-methylcytosine and N1-methylpseudouridine (2nd set)) was 54 pg/mL, the “TNF-α Expression” value ([3]; PBMC Donor 1, 500 ng G-CSF mRNA, listed as 5-methylcytosine and N1-methylpseudouridine (4th set)) was 36 pg/mL and the “TNF-α Expression” value [3, 6] was 79 pg/mL. The “TNF-α Expression” value [3, 7] was 97 pg/mL, the “TNF-α Expression” value [3, 8] was 14 pg/mL and the “TNF-α Expression” value [3, 9] was 126 pg/mL. The “TNF-α Expression” value [3, 10] was 149 pg/mL, the “TNF-α Expression” value [3, 11] was 13 pg/mL and the “TNF-alpha: 2 Donor Average” value [4, 12] was 3 pg/mL. For the same molecule, the “TNF-alpha: 2 Donor Average” value [4, 13] was 280 pg/mL.

B2: N4-acetylcytidine/2-thiouridine: G-CSF mRNA (SEQ ID NO: 408) fully modified with the named combination (nucleic acid)
chain: GGGAAAUAAGAGAGAAAAGAAGAGUAAGAAGAAAUAUAAGAGCCACCAUGGCCGGUCCCGCGACCCAAAGCCCCAUGAAACUUAUGGCCCUGCAGUUGCUGCUUUGGCACUCGGCCCUCUGGACAGUCCAAGAAGCGACUCCUCUCGGACCUGCCUCAUCGUUGCCGCAGUCAUUCCUUUUGAAGUGUCUGGAGCAGGUGCGAAAGAUUCAGGGCGAUGGAGCCGCACUCCAAGAGAAGCUCUGCGCGACAUACAAACUUUGCCAUCCCGAGGAGCUCGUACUGCUCGGGCACAGCUUGGGGAUUCCCUGGGCUCCUCUCUCGUCCUGUCCGUCGCAGGCUUUGCAGUUGGCAGGGUGCCUUUCCCAGCUCCACUCCGGUUUGUUCUUGUAUCAGGGACUGCUGCAAGCCCUUGAGGGAAUCUCGCCAGAAUUGGGCCCGACGCUGGACACGUUGCAGCUCGACGUGGCGGAUUUCGCAACAACCAUCUGGCAGCAGAUGGAGGAACUGGGGAUGGCACCCGCGCUGCAGCCCACGCAGGGGGCAAUGCCGGCCUUUGCGUCCGCGUUUCAGCGCAGGGCGGGUGGAGUCCUCGUAGCGAGCCACCUUCAAUCAUUUUUGGAAGUCUCGUACCGGGUGCUGAGACAUCUUGCGCAGCCGUGAAGCGCUGCCUUCUGCGGGGCUUGCCUUCUGGCCAUGCCCUUCUUCUCUCCCUUGCACCUGUACCUCUUGGUCUUUGAAUAAAGCCUGAGUAGGAAG
modifications: N4-acetylcytidine/2-thiouridine modified; Description of Artificial Sequence: Synthetic Transcript Sequence
In the case of B2, the “G-CSF protein (pg/ml) HeLa cells” value (HeLa cells; combination chemistries) is reported as 46,136 pg/ml, the “IFN-alpha: 3 Donor Average” value [1] is reported as 0 pg/mL and the “TNF-alpha: 2 Donor Average” value [4] is reported as 285 pg/mL.
